Like-named read-outs stand apart in the source and are kept apart here.
Key:
[1] = target: T1, Human FGFR-3(IIIb) (human, UniProt P22607-2 23-377, limits assumed); experiment: BiaCore 3000 SPR, room temperature
T1 construct: The construct in the BiaCore experiment is not described; it is probably recombinant ECD-Fc; also called b-splice form of human FGFR-3
T1 sequence (looked up): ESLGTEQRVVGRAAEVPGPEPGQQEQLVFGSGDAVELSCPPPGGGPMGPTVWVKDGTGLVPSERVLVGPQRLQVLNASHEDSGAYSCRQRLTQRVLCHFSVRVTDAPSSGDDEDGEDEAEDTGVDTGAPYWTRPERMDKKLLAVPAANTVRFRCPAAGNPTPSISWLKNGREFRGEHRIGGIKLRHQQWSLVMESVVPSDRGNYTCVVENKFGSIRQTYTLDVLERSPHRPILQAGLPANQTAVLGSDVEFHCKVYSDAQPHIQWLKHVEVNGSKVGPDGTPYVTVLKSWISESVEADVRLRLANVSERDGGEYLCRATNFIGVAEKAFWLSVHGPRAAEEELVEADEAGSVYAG

[2] = target: T2, FGFR-3(IIIb) or (IIIc) ECD (extracellular domain) Fc tagged soluble recombinant protein (human, UniProt P22607 23-375); experiment: ELISA blocking assay: FGFR-3 ECD-Fc (1 µg/ml) with antibody dilutions on FGF-1 coated plates; lower end of the range
T2 construct: extracellular domain; also called recombinant human FGFR-Fc; not shown: Fc tag
T2 sequence (looked up): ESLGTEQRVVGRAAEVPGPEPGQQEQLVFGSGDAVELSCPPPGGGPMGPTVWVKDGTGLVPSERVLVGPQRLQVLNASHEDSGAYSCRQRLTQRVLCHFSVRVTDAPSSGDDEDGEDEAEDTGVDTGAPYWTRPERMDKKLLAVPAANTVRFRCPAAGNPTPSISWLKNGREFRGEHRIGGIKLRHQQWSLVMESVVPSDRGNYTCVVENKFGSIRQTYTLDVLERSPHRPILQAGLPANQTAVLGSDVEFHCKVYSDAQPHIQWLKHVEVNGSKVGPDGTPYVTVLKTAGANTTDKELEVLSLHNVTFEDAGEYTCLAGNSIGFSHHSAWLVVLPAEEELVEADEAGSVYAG
Text: (§1) Wash plates 3 times with 0.2% Tween20/PBS. […] Blocking activities lead to decreased signals.

[3] = target: T3, FGFR-3(IIIb) truncate D1 (25-148)-Fc (human, UniProt P22607 25-148); experiment: Mesoscale binding assay and BIAcore
T3 construct: range 25-148; Homodimeric Fc fusion; not shown: human Fc tag of the pGS-Fc vector
T3 sequence: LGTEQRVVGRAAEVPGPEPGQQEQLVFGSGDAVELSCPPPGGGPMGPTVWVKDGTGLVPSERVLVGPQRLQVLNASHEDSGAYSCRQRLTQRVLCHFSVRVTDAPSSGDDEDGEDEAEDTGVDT

[4] = target: T4, FGFR-3(IIIb) truncate D3 (250-372)-Fc (human, UniProt P22607-2 250-372); experiment: Mesoscale binding assay and BIAcore
T4 construct: range 250-372; Homodimeric Fc fusion; not shown: human Fc tag of the pGS-Fc vector
T4 sequence (looked up): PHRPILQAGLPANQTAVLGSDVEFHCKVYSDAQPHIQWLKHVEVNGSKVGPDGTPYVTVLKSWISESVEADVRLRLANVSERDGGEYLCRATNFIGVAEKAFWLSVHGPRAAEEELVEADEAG

[5] = target: T2, FGFR-3(IIIb) or (IIIc) ECD …; experiment: ELISA blocking assay: FGFR-3 ECD-Fc (1 µg/ml) with antibody dilutions on FGF-1 coated plates; upper end of the range
Text: as §1

[6] = target: T1, Human FGFR-3(IIIb); experiment: BiaCore 3000 SPR, room temperature; remark: listed apart in the source

B1: Antibody 1 (antibody, human IgG1, lambda)
heavy: not shown
light: QSVLTQPPSLSVAPGKTATFTCGGNNIGDKSVHWYRQKPGQAPVLVMYLDTERPSGIPERMSGSNFGNTATLTITRVEAEDEADYYCQVWDSGSDHVVFGGGTKLTVLGQPKAAPSVTLFPPSSEELQANKATLVCLISDFYPGAVTVAWKADSSPVKAGVETTTPSKQSNNKYAASSYLSLTPEQWKSHRSYSCQVTHEGSTVEKTVAPAECS
notes: Human IgG1 from a naive human Fab phage library; It was ruthenium-labelled in the Mesoscale assay and Alexa Fluor-labelled in the internalisation assay; also called FGFR-3 antibody antagonist
Question: What does the source list for B1?
Answer: Kd [1]: 1 nM; IC50 [2]: ≥ 1 nM; binding result [3]: no binding (tested: 250-0.001 nM dilution series); binding result [4]: no binding (tested: 250-0.001 nM dilution series); IC50 [5]: ≤ 10 nM; Kd [6]: 0.72 nM
